Test [1] concerns the target DDB1ΔB-DCAF15biotin-DDA1 (human) (UniProt Q16531). As to the kind of experiment: TR-FRET with E7820; DDB1-DCAF15-DDA1 against DDB1-DCAF15. (Time-resolved FRET reads energy transfer from a long-lived donor to a nearby acceptor.)
Test [2] deals with DDB1ΔB-DCAF15biotin (human) (UniProt Q16531). As to the kind of experiment: TR-FRET dimerization assay; the compound tasisulam is titrated (EC50 is of the compound), both proteins at 200 nM, FIG. 7F.
For test [3] the target is unchanged. As to the kind of experiment: TR-FRET, BodipyFL-RBM39RRM2 titrated to DDB1ΔB-DCAF15biotin in the presence of E7820 at 50 µM; apparent KD.
For test [4] the target is unchanged. As to the kind of experiment: TR-FRET dimerization assay; the compound indisulam is titrated (EC50 is of the compound), both proteins at 200 nM, FIG. 7F.
For test [5] the target is unchanged. Kind of test: TR-FRET, BodipyFL-RBM39RRM2 titrated to DDB1ΔB-DCAF15biotin in the presence of tasisulam at 50 µM; apparent KD.
The target of test [6] is DDB1ΔB-DCAF15biotin-DDA1 (human) (UniProt Q16531). As to the kind of experiment: TR-FRET dimerization assay; the compound E7820 is titrated (EC50 is of the compound) to DDB1ΔB-DCAF15biotin-DDA1 and BodipyFL-RBM39RRM2, FIG. 3D.
Test [7] has the same target. Kind of test: TR-FRET, BodipyFL-RBM39RRM2 titrated to DDB1ΔB-DCAF15biotin-DDA1 in the presence of E7820 (50 µM), FIG. 3C; apparent KD.
The target of test [8] is DDB1ΔB-DCAF15biotin (human) (UniProt Q16531). Kind of test: TR-FRET dimerization assay; the compound E7820 is titrated (EC50 is of the compound), both proteins at 200 nM, FIG. 7F.
For test [9] the target is unchanged. As to the kind of experiment: TR-FRET, BodipyFL-RBM39RRM2 titrated to DDB1ΔB-DCAF15biotin in the presence of indisulam at 50 µM; apparent KD.
Test [10] has the same target. Kind of test: TR-FRET, BodipyFL-RBM39RRM2 titrated to DDB1ΔB-DCAF15biotin in the presence of E7820 (50 µM), FIG. 3C; apparent KD.
The target is the same in test [11]. Kind of test: TR-FRET dimerization assay; the compound E7820 is titrated (EC50 is of the compound) to DDB1ΔB-DCAF15 in the presence of BodipyFL-RBM23RRM2-WT, FIG. 5E.

Some results are limits rather than exact numbers.

This note sets out measurements from US20220402981A1.

Chain of BodipyFL-RBM39RRM2 (Q14498 245-332): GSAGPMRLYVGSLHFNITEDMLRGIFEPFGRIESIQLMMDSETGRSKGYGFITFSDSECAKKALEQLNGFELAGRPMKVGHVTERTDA

In the case of “BodipyFL-RBM39RRM2 (from UniProt Q14498 245-332)”, the fold strengthening of apparent affinity against the complex without DDA1 in [1] stood at 3 fold. For the same substance, the EC50 in [2] is more than 10000 nM; in test [4] it was 3200 nM; in test [6] it was 330 nM; in [8], 740 nM. Also, the Kd in test [3] was 2000 nM; in test [5], 3500 nM; in test [7] it was 620 nM; in test [9], 2100 nM; in test [10] it was 1900 nM.
As for “BodipyFL-RBM23RRM2-WT (from UniProt Q86U06 263-341)”, in test [11], the EC50 worked out at 1000 nM.

Usually EC50 stands for the concentration needed to bring the measured effect to its halfway point.
